The assay concerns the target T1, EphA2 (UniProt P29317 25-534, limits assumed).
T1 construct: also called EphA2 receptor
The experiment in a line: biolayer interferometry (ForteBio Octet).

Here are results for one molecule from US20250042968A1 (UNIVERSITY OF MIAMI, published 2025).

T1 sequence (P29317 25-534 limits assumed): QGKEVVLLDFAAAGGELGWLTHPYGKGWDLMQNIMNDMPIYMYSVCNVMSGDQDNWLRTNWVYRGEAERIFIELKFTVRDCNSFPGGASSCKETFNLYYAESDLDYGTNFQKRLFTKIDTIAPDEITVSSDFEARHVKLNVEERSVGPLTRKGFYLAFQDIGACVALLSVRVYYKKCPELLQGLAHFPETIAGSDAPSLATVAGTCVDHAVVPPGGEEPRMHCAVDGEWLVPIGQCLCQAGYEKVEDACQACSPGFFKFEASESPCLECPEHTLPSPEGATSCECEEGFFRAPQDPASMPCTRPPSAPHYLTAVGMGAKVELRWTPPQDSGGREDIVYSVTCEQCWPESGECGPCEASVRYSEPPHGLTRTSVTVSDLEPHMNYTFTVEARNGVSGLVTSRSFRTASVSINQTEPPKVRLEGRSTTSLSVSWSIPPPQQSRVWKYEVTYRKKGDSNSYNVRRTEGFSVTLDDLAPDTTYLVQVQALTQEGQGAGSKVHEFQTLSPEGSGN

B1: SNEW (peptide)
peptide: SNEWIQPRLPQH
notes: Known EphB2 targeting peptide, tested alongside the xEFN peptides as a comparator
Take B1: the binding result is “no binding”.
